Ends that are not written are not given here.
How the values were obtained:
Assay type in all cases: cell-based
[1] = system: csGRP78 interaction with α2M*; test: HG-induced profibrotic signaling and matrix production in human proximal tubular cell line HK2; conditions: proximal tubular cells; FIG. 8E
Method: (§1) Cell Culture-Primary mesangial cells (MC) were obtained from male C57BL/6 mice by glomerular sieving and cultured in Dulbecco's modified Eagle's medium (Sigma) supplemented with 20% fetal bovine serum, streptomycin (100 μg/mL) and penicillin (100 μg/mL). 1LN prostate cancer cells, which express high levels of csGRP78 (as described in Hart et al., J Biol Chem. 2002; 277 (44): 42082-42087) were cultured in RPMI 1640 supplemented with 10% fetal bovine serum (ThermoFisher). Cells were grown at 37° C. in 95% 02 and 5% CO2. The immortalized human proximal tubular cell line HK2 (ATCC, Burlington, Canada) was cultured in 10% FBS in DMEM/F12 medium. Primary rat renal fibroblasts (Cell Biologics, Burlington, Canada) and cultured in 10% FBS in DMEM/F12 medium. MC were serum deprived in medium with 1% bovine serum albumin (BSA) and HK2 and RF cells were starved in 0.5% FBS 24 h before treatment with HG (30 mM), mannitol (24.4 mM) as osmotic control or methylamine-activated α2M (100 pM). The peptide sequence in GRP78 to which α2M* binds was used to block their interaction (CLIGRTWNDPSVQQDIKFL) (Leu^98-Leu^115 with an additional N-terminal cysteine) (Gopal et al., J Biol Chem. 2016; 291 (20): 10904-10915). The scrambled peptide, GTNKSQDLWIPQLRDVFI (SEQ ID NO: 4) was used as a control, with both peptides used at 100 nM (Cedarlane). […]

[2] = biological target: T1, α2M*/csGRP78 interaction (Homo sapiens, UniProt P01023); test: Intracellular calcium assay (Fura-2AM) in 1LN cells treated with α2M*
T1 construct: host or cells: 1LN prostate cancer cells (endogenous csGRP78); α2M* added from outside
T1 sequence (P01023 24-1474): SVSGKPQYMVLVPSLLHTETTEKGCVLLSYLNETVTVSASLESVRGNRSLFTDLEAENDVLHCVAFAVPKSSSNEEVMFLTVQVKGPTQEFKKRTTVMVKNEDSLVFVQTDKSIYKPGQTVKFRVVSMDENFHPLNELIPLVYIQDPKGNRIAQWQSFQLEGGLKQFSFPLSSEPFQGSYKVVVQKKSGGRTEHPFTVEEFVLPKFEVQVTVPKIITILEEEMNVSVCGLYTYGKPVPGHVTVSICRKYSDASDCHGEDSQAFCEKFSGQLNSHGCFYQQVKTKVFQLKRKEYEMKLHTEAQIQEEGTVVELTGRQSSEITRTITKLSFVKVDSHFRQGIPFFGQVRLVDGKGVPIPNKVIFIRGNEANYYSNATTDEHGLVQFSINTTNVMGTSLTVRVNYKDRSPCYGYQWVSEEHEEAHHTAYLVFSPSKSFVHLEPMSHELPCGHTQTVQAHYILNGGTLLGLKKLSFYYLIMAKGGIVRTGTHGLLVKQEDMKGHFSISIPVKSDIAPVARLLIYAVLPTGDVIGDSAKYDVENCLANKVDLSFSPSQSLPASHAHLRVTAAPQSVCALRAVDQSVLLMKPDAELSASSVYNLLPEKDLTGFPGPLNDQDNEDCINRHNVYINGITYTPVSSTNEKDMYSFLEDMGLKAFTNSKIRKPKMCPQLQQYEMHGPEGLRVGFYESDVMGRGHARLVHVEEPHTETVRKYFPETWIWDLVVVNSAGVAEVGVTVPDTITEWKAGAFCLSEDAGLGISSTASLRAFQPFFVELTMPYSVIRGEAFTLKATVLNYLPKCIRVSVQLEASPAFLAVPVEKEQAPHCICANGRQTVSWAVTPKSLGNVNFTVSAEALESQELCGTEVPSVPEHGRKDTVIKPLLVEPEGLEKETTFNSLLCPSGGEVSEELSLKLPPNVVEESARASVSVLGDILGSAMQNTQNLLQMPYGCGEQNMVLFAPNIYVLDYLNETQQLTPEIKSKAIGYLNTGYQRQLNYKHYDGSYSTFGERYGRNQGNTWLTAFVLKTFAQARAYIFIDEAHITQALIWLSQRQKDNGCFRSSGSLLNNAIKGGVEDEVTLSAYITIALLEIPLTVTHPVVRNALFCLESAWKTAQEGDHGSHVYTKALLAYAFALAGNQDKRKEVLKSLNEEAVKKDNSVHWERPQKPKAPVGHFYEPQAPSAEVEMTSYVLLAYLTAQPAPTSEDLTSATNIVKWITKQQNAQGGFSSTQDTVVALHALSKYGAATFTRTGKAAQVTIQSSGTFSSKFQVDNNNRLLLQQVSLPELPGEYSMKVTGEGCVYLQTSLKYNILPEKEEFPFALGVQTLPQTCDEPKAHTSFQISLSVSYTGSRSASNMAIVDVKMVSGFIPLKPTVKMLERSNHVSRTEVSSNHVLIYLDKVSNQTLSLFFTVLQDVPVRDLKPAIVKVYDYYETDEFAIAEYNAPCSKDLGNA
Method: as §1, with “10904-10915).” for “10904-10915). The scrambled peptide, GTNKSQDLWIPQLRDVFI (SEQ ID NO: 4) was used as a control, with both peptides used at 100 nM (Cedarlane).”
Intracellular Calcium Assay—1LN cells were plated in a 96 black walled clear bottom plate and allowed to grow to confluence over 2 days. After loading with the calcium indicator Fura-2AM (5 μM, Abcam) in HBSS for 45 minutes at 37° C. in the dark, baseline fluorescence readings were taken every minute for 5 minutes using a temperature-controlled fluorescent microplate reader (Gemini EM Spectra Max, Molecular Devices) set to 340 and 380 nm excitation and 510 nm emission. After treatment with methylamine-activated α2M (100 pM) with or without antibody (Fα2M or control IgG, 2 μg) and with or without peptide or scrambled peptide (100 nM), readings were taken every minute for 15 minutes. Intracellular calcium concentrations were determined by calculating the ratio of fluorescence signal (340/380 nm).

[3] = system: csGRP78 interaction with α2M*; test: HG-induced profibrotic signaling and matrix production in primary rat renal fibroblasts; conditions: FIG. 8F
Method: as §1

[4] = biological target: T2, α2M*/csGRP78 interaction (Mus musculus, UniProt Q6GQT1); test: High glucose (HG)-induced profibrotic responses in primary mesangial cells (MC), immunoblotting; conditions: for HG-induced Akt activation (pAkt on S473) / HG-induced upregulation of fibronectin (FN), collagen (Col) IV and CTGF: MC, HG 48 h, peptides 100 nM; for HG-induced Akt activation (pAkt on S473): FIG. 4B; for HG-induced upregulation of fibronectin (FN), collagen (Col) IV and CTGF: FIG. 4C; for HG-induced profibrotic responses in MC: FIG. 11B, 11D
T2 construct: endogenous in cells; host or cells: primary mouse mesangial cells (C57BL/6)
T2 sequence (Q6GQT1 33-1474): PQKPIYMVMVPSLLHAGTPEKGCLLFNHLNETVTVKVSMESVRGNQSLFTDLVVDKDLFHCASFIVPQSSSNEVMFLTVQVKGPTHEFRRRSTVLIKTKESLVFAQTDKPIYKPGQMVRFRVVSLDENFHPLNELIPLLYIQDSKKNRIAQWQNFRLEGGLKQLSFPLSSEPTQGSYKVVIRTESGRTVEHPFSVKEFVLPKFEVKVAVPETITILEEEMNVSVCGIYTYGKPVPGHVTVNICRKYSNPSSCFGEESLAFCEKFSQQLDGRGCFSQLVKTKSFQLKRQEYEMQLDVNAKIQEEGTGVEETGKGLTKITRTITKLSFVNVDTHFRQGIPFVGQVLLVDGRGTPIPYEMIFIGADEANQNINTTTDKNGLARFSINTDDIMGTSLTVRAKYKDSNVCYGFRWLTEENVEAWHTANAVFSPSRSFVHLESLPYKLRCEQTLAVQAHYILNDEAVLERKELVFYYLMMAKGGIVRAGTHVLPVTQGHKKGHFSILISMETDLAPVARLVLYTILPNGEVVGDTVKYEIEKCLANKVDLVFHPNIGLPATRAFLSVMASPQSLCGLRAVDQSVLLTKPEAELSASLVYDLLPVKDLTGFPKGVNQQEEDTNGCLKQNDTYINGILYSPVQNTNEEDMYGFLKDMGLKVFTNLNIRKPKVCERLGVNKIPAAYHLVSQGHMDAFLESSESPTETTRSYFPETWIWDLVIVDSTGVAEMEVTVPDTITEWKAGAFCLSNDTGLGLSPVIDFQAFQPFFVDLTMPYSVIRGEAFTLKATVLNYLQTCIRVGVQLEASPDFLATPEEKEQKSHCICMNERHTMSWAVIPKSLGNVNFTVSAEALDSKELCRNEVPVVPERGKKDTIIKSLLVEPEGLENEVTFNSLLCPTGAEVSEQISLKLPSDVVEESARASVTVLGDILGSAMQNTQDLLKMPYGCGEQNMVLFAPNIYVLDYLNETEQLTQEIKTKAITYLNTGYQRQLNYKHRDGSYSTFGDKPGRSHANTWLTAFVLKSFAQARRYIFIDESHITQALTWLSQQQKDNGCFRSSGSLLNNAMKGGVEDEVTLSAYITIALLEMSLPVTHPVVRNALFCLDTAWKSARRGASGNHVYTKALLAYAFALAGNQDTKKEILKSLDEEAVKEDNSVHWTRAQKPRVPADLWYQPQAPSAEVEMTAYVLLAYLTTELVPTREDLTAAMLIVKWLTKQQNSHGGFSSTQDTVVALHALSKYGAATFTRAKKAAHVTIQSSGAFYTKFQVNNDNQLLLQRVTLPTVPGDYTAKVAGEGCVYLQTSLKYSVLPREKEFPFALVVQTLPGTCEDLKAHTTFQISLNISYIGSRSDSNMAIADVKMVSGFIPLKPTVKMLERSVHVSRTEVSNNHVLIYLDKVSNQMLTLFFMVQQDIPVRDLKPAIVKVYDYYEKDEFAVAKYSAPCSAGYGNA
Method: Cell Culture-Primary mesangial cells (MC) were obtained from male C57BL/6 mice by glomerular sieving and cultured in Dulbecco's modified Eagle's medium (Sigma) supplemented with 20% fetal bovine serum, streptomycin (100 μg/mL) and penicillin (100 μg/mL). 1LN prostate cancer cells, which express high levels of csGRP78 (as described in Hart et al., J Biol Chem. 2002; 277 (44): 42082-42087) were cultured in RPMI 1640 supplemented with 10% fetal bovine serum (ThermoFisher). Cells were grown at 37° C. in 95% 02 and 5% CO2. The immortalized human proximal tubular cell line HK2 (ATCC, Burlington, Canada) was cultured in 10% FBS in DMEM/F12 medium. Primary rat renal fibroblasts (Cell Biologics, Burlington, Canada) and cultured in 10% FBS in DMEM/F12 medium. MC were serum deprived in medium with 1% bovine serum albumin (BSA) and HK2 and RF cells were starved in 0.5% FBS 24 h before treatment with HG (30 mM), mannitol (24.4 mM) as osmotic control or methylamine-activated α2M (100 pM). The peptide sequence in GRP78 to which α2M* binds was used to block their interaction (CLIGRTWNDPSVQQDIKFL) (Leu^98-Leu^115 with an additional N-terminal cysteine) (Gopal et al., J Biol Chem. 2016; 291 (20): 10904-10915). The scrambled peptide, GTNKSQDLWIPQLRDVFI (SEQ ID NO: 4) was used as a control, with both peptides used at 100 nM (Cedarlane). Additional peptides were synthesized by Biomatik as follows: 1) peptide lacking the N-terminal cysteine, 2) peptide in which the cysteine was replaced by a methionine, 3) dimerized peptide via the cysteine (LFKIDQQVSPDNWTRGILC—S—S— CLIGRTWNDPSVQQDIKFL) (SEQ ID NO: 5) head to tail cyclization via an amide which leaves the cysteine intact.
Protein Extraction and Immunoblotting-Cells were lysed as described previously (Krepinsky et al. Nitric Oxide Inhibits Stretch-Induced MAPK Activation in Mesangial Cells Through RhoA Inactivation. Published online 2003. doi: 10.1097/01.ASN.00000940.85.04161.A7). Proteins were separated using SDS-PAGE followed by immunoblotting. Antibodies used were: α2M (1:1000, Bioss), mouse monoclonal F-α2M, which detects only conformationally changed α2M* as previously described (1:1000), pAkt S473 (1:1000, Cell Signaling), total Akt (1:1000, Cell Signaling),), pSmad3 Ser423/425 (1:4000, Novus), total Smad3 (1:1000, Abcam), phosphorylated focal adhesion kinase (pFAK) Tyr-397 (1:1000, Millipore, 07-012), FAK (1:1000, Santa Cruz Biotechnology, SC558), LRP1 (1:1000, Abcam), GRP78 (C20) (1:1000, Santa Cruz), platelet derived growth factor-β (PDGFR-β) (1:1000, Cedarlane), collagen IV (Col IV) (1:1000, Cell Signaling), fibronectin (FN) (1:1000, Abcam), connective tissue growth factor (CTGF) (1:1000, Santa Cruz), and tubulin (1:2000, Santa Cruz).

HG-induced Akt activation (pAkt on S473) [4] | HG-induced upregulation of fibronectin (FN), collagen (Col) IV and CTGF [4] | Substance | HG-induced profibrotic responses in MC [4] | also measured
prevented HG-induced Akt activation | prevented | CLIGRTWNDPSVQQDIKFL [Pep] | – | HG-induced Akt activation (Ser473) and ECM production [1]: attenuated; release of intracellular calcium stores in response to α2M* ([2]; 1-LN cells, α2M* 100 pM, 15 min, peptides 100 nM, FIG. 4A): inhibited release of intracellular calcium stores; HG-induced Akt activation (Ser473) and ECM production [3]: attenuated
– | – | LIGRTWNDPSVQQDIKFL [Pep woC, peptide without an N-terminal cysteine residue in Leu98-Leu115] | does not prevent HG-induced profibrotic responses | calcium signaling in 1LN cells induced by α2M* ([2]; peptide tested at 100 pM and 100 nM, FIG. 11A): did not inhibit calcium signaling
– | – | LFKIDQQVSPDNWTRGILC—S—S— CLIGRTWNDPSVQQDIKFL (also: homodimer via disulfide between the N-terminal cysteines of two copies) [Dimer Pep, dimerized peptide via the cysteine] | do not prevent HG-induced profibrotic responses | calcium signaling in 1LN cells induced by α2M* ([2]; FIG. 11C): do not inhibit calcium signaling
had no effect | had no effect | GTNKSQDLWIPQLRDVFI [Scr, scrambled control peptide, reference compound] | – | –
